One substance from PMC12559291 can be followed below.

Test [1] addresses galectin-3 (Gal3), human recombinant, made as Gal3-TEV-6xHis and freed of the tag by TEV protease (human) (UniProt P17931). Briefly: negative stain EM; Gal3 or Gal3∆Nter (4 μM, 2 h at 21 °C) on inactive rat α5β1 integrin in nanodiscs held on cobalt beads, washed, eluted with 50 μM I3; the eluted particles counted as monomers or ring-shaped oligomers.
For test [2] the target is unchanged. In words: negative stain EM; lactose-washed RPE-1 cells with exogenous Gal3 (50 μg/mL) for 30 min at 4 °C; surface-bound Gal3 eluted with I3; 2D classification of the eluted particles in cryoSPARC.
The target in test [3] is α5β1 integrin purified from rat liver (rat) (UniProt P49134). In words: cryo-EM structure; rat α5β1 integrin in peptidiscs on cobalt beads, sialidase-treated, 4 μM Gal3 for 2 h at 21 °C, eluted with 10 mM EDTA and vitrified at once; 6.9 Å.
The target in test [4] is galectin-3 (Gal3), human recombinant, made as Gal3-TEV-6xHis and freed of the tag by TEV protease (human) (UniProt P17931). Briefly: cryo-EM structure; rat α5β1 integrin in GSL-containing nanodiscs on cobalt beads, sialidase-treated, 4 μM Gal3 for 2 h at 21 °C, eluted with 10 mM EDTA and vitrified at once; three subsets at 7.4, 8.5 and 7.6 Å; Gal3 CRDs (PDB 1KJL) fitted as rigid bodies.

The target in test [5] is α5β1 integrin purified from rat liver (rat) (UniProt P49134). The description is as above.
Test [6] has the same target. In words: single-molecule photobleaching (TIRF); sialidase-treated rat α5β1 integrin in biotinylated peptidiscs complexed with 4 μM Gal3-Cy3 on cobalt beads, eluted with EDTA, immobilised on neutravidin-coated glass; 21 °C.

“And” between values parts separate entries of the source, which are not always exact repeats. Identical values can stand only once.

Take “galectin-3 (Gal3), human recombinant, made as Gal3-TEV-6xHis and freed of the tag by TEV protease (from UniProt P17931 1-250) (natural protein)”: in test [1], the percent of eluted Gal3 particles that are ring-shaped oligomers was 40%. Besides, the percent of oligomer particles classed as dimers in test [2] came to 37%. For the same substance, the percent of oligomer particles classed as tetramers in test [2] worked out at 22%. Further, in test [2], the percent of oligomer particles classed as trimers is 41%. The stoichiometry N in test [2] is 2 and 3 and 4; in test [3], 2; in test [4] it was 2 and 3 and 4; in test [5], 2 and 3 and 4; in test [6], less than 4.

What is called stoichiometry N is a count of units in the complex or per binding partner.
